Here are results for two molecules from article PMC8419096.

The assay deals with HIV-1 precursor Gag (PrGag) protein (HIV-1) (UniProt P04591). Nature of the assay: dual fluorescence microscopy of virus-like particles.

The molecule “EGFP-Vpr (from UniProt P12520 1-96) (natural protein)” had a percent of CA positive particles that were also GFP positive of 39.1%.

B1: VHH52-GFP (control nanobody elicited against the influenza nucleoprotein, fused to GFP) (VHH)
VHH: QVQLQESGGGLVQAGGSLRLTCALSERTSTSYAQGWFRQPPGKEREFVASLRTHDGNTHYTDSVKGRFTISRDNAENTLYLQMNSLKTEDTAVYYCAASLGYSGAYASGYDYWGQGTQVTVSS
Molecule B1 displayed a percent of CA positive particles that were also GFP positive of 0.1%.
